Test results published in the supplement of paper PMC12667976.

B1: library; numbered along this chain (parent)
chain: MATDAALRRLLRLHRTEIAVAVDSAFPLLHALADHDVVPEDKFQETLHLKEKEGCPQAFHALLSWLLTQDSTAILDFWRVLFKDYNLERYGRLQPILDSFPKDVDLSQPRKGRKPPAVPKALVPPPRLPTKRKASEEARAAAPAALTPRGTASPGSQLKAKPPKKPESSAEQQRLPLGNGIQTMSASVQRAVAMSSGDVPGARGAVEGILIQQVFESGGSKKCIQVGGEFYTPSKFEDSGSGKNKARSSSGPKPLVRAKGAQGAAPGGGEARLGQQGSVPAPLALPSDPQLHQKNEDECAVCRDGGELICCDGCPRAFHLACLSPPLREIPSGTWRCSSCLQATVQEVQPRAEEPRPQEPPVETPLPPGLRSAGEEVRGPPGEPLAGMDTTLVYKHLPAPPSAAPLPGLDSSALHPLLCVGPEGQQNLAPGARCGVCGDGTDVLRCTHCAAAFHWRCHFPAGTSRPGTGLRCRSCSGDVTPAPVEGVLAPSPARLAPGPAKDDTASHEPALHRDDLESLLSEHTFDGILQWAIQSMARPAAPFPS

Variants of: B1
Test: AIRE transcriptional activation functional score (insulin promoter-GFP; nonsense median 0, synonymous median 1) (normalised score); higher = higher AIRE activity (more reporter activation)
Settings: with insulin promoter-GFP reporter in HEK293
In short: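 Three regions of AIRE were covered by codon-optimized NNN-codon libraries, which Bxb1 recombinase integrated into Flp-In T-REx HEK293 landing-pad cells that carry an insulin core promoter-GFP reporter. Integrants (mCherry+, BFP−) were sorted at day 7 and expanded 7 days, and then the top 10% GFP population and the unselected integrant population were tile-sequenced. The functional score is the enrichment of each variant in select versus non-select cells, with wild type subtracted. Variants required 10 counts per million in non-select, and values were rescaled to a nonsense median of 0 and a synonymous median of 1, then averaged over biological replicates.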

AIRE transcriptional activation functional score, by site and new letter:
E353: Q 1.18 | P 1.12 | R 1.14
P367: G 0.153 | F 1.13 | D 0.924 | I 1.46 | C 1.47 | A 0.781 | E 1.46
E354: R 1.14 | W 1.16 | N 0.818 | L 1.05 | C 1.16 | S 0.901 | P 0.835 | F 1.33 | T 0.99 | Q 0.948 | G 1.13 | V 1.08 | H 1.1 | M 1.47 | A 0.949 | I 1.13 | K 0.669 | Y 1.38 | D 1.22
A352: E 0.933 | Y 0.899 | T 1.32 | I 1.08 | Q 0.697 | V 0.882 | F 1.38 | D 1.08 | S 1 | L 1.06 | H 0.902 | M 1.13 | C 1.1 | R 0.916 | P 0.925 | W 1.31 | G 0.813 | N 1.01 | K 0.997
L366: W 1.29 | A 0.656 | F 1.02 | H 1.21 | V 0.996 | C 0.406 | R 1.1 | N 0.777 | E 1.32 | Y 0.821 | S 0.837 | K 1.37 | M 0.554 | I 0.894 | P 1.13 | T 1.17 | Q 0.884 | G 0.607 | D 0.846
Q349: W 1.55 | Y 1.08 | V 1.13 | T 1.12 | S 1.26
P365: V 0.952 | G 0.47 | H 0.594 | W 1.45 | Q 0.92 | Y 1.75 | C 1.05 | L 1.07 | M 1.49 | T 0.843 | R 1.28
